Data taken from EP4748847A1, “PEPTIDE COMPLEX HAVING VEGFR -2 AGONIST ACTIVITY” (Peptidream Inc, priority 2023, dated 2025).
Like-named read-outs stand apart in the source and are kept apart here. Bridges are numbered along the chain shown (N, C = ends). Primed or numbered codes have the meaning given here. Where no end group is shown, it is not given here. [ ]: non-standard residue; d: D form. hTyr = N[C@@H](CCc1ccc(O)cc1)C(=O)O; Chg = N[C@H](C(=O)O)C1CCCCC1; Tle = CC(C)(C)[C@H](N)C(=O)O; 3Py6NH2 = not defined here; 4Py2NH2 = not defined here; F4aao = not defined here; Ahp′ = not defined here; Atb = not defined here; Yph = not defined here

Assays:
Test in all cases: cell-based or functional assay
VEGFR-2 [1] = target: T1, VEGFR-2 (human, UniProt P35968 20-1356)
T1 sequence (P35968 20-1356): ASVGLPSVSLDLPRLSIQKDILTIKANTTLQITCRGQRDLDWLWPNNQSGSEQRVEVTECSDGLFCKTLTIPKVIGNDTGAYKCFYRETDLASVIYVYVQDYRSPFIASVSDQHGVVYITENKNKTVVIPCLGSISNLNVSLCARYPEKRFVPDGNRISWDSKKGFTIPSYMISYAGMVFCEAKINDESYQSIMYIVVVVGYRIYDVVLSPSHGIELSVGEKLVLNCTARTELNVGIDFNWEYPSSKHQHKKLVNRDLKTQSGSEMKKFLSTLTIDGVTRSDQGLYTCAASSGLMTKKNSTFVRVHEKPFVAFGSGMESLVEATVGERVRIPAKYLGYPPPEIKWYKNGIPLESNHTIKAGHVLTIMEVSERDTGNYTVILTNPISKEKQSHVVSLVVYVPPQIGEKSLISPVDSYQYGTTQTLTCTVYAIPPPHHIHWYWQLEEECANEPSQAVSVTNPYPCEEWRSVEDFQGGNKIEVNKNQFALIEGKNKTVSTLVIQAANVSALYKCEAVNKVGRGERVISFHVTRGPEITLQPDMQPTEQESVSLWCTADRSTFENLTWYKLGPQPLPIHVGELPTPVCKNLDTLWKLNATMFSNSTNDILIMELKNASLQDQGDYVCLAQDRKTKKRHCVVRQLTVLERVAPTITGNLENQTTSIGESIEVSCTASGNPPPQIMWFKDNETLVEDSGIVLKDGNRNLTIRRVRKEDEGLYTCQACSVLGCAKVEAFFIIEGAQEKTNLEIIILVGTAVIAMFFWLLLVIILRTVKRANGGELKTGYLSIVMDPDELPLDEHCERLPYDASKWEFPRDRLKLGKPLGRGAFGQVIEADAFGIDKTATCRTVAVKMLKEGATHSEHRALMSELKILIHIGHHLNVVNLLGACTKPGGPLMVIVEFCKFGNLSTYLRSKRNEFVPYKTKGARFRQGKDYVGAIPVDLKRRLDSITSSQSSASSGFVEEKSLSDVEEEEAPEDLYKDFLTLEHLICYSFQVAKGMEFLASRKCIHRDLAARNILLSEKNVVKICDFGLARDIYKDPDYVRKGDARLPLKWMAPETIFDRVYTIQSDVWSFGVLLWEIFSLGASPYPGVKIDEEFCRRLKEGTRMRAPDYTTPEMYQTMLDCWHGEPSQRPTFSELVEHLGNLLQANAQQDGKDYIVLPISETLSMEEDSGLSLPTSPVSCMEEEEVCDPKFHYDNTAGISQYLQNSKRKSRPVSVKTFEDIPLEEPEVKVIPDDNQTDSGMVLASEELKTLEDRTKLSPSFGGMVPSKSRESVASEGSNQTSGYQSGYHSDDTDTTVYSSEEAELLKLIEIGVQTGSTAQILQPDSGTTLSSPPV

VEGFR-2 [2] = target: T1, VEGFR-2; remark: listed apart in the source
VEGFR-2 [3] = target: T1, VEGFR-2; remark: listed apart in the source

Binder | proliferation (HUVEC, CellTiter-Glo) (VEGFR-2 [1]) | pERK Assay Results (AlphaLISA p-Erk1/2, HUVEC) (VEGFR-2 [2]) | pERK Assay Results (AlphaLISA p-Erk1/2, HUVEC) (VEGFR-2 [3])
{CH2CO}-WW[Tle]DVKDDLY[F4G]VDCG-NH2 (thioether N-14; also: homodimer: Lys6 joined to Lys6 of second copy by cPEG17c (Linker Structure No. 4)) [Peptide complex Dimer Structure No. 43] | ≥ 50 % activity at 5 nM | ≥ 50 % activity at 5 nM | 
{CH2CO}-WW[Tle]D[alT]KDDLYF[hTyr]DCG-NH2 (thioether N-14; not fully specified (residue 6); also: homodimer: Lys6 joined to Lys6 of second copy by cPEG17c (Linker Structure No. 4)) [Peptide complex Dimer Structure No. 27] | ≥ 50 % activity at 10 nM | ≥ 50 % activity at 10 nM | 
{CH2CO}-WW[Tle]DVKDDLY[Yph][hTyr]DCG-NH2 (thioether N-14; not fully specified (residue 6); reading uncertain; also: homodimer: Lys6 joined to Lys6 of second copy by cPEG17c (Linker Structure No. 4)) [Peptide complex Dimer Structure No. 20] |  |  | ≥ 50 % activity at 10 nM
{CH2CO}-WWVDVKDDLYF[hTyr]DCG-NH2 (thioether N-14; not fully specified (residue 6); also: homodimer: Lys6 joined to Lys6 of second copy by cPEG17c (Linker Structure No. 4)) [Peptide complex Dimer Structure No. 18] |  |  | ≥ 50 % activity at 100 nM
{CH2CO}-WW[Tle]DVKDDLYF[hTyr]SCG-NH2 (thioether N-14; also: homodimer: Lys6 joined to Lys6 of second copy by cPEG17c (Linker Structure No. 4)) [Peptide complex Dimer Structure No. 33] | ≥ 50 % activity at 10 nM | ≥ 50 % activity at 10 nM | 
{CH2CO}-WWVDVKDDLY[F4G]VDCG-NH2 (thioether N-14; not fully specified (residue 6); also: homodimer: Lys6 joined to Lys6 of second copy by cPEG17c (Linker Structure No. 4)) [Peptide complex Dimer Structure No. 17] |  |  | ≥ 50 % activity at 100 nM
{CH2CO}-WWVDVKDDLYFVDCG-NH2 (thioether N-14; also: homodimer: Lys6 joined to Lys6 of second copy by cPEG17c (Linker Structure No. 4)) [Peptide complex Dimer Structure No. 42] | ≥ 50 % activity at 1.25 nM | ≥ 50 % activity at 20 nM | 
{CH2CO}-WW[Tle]DVKDD[Atb]Y[F4G][hTyr]DCG-NH2 (thioether N-14; reading uncertain; also: dimer: Lys6 joined to Lys6 of second copy by OCOPEG17OCO (Linker Structure No. 6)) [Peptide complex Dimer Structure No. 53] | ≥ 50 % activity at 5 nM | ≥ 50 % activity at 5 nM | 
{CH2CO}-[W7N]W[Tle]DVKDDLYF[hTyr]DCG-NH2 (thioether N-14; also: homodimer: Lys6 joined to Lys6 of second copy by cPEG17c (Linker Structure No. 4)) [Peptide complex Dimer Structure No. 46] | ≥ 50 % activity at 1.25 nM | ≥ 50 % activity at 20 nM | 
{CH2CO}-[Hcit]W[Tle]DVKDDLYF[hTyr]DCG-NH2 (thioether N-14; not fully specified (residue 6); also: homodimer: Lys6 joined to Lys6 of second copy by cPEG17c (Linker Structure No. 4)) [Peptide complex Dimer Structure No. 21] |  |  | ≥ 50 % activity at 10 nM
{CH2CO}-WWVDV[Ahp′]DDLYFVDCG (thioether N-14; reading uncertain; also: dimer joined at Gly15 C-termini by PEG12c-K-PEG12c) [Peptide complex Dimer Structure No. 2] | < 50 % activity at 100 nM |  | ≥ 50 % activity at 100 nM
{CH2CO}-WW[Tle]DVKDDLY[Yph]VDCG-NH2 (thioether N-14; not fully specified (residue 6); reading uncertain; also: homodimer: Lys6 joined to Lys6 of second copy by cPEG17c (Linker Structure No. 4)) [Peptide complex Dimer Structure No. 19] |  |  | ≥ 50 % activity at 100 nM
{CH2CO}-WW[Tle]DVKDDLYF[Chg]DCG-NH2 (thioether N-14; not fully specified (residue 6); also: homodimer: Lys6 joined to Lys6 of second copy by cPEG17c (Linker Structure No. 4)) [Peptide complex Dimer Structure No. 31] | ≥ 50 % activity at 10 nM | ≥ 50 % activity at 10 nM | 
{CH2CO}-WW[Tle]DVKDDLY[F4G][hTyr]DCG-NH2 (thioether N-14; also: homodimer: Lys6 joined to Lys6 of second copy by cPEG17c (Linker Structure No. 4)) [Peptide complex Dimer Structure No. 45] | ≥ 50 % activity at 5 nM | ≥ 50 % activity at 20 nM | 
{CH2CO}-WWVDVKDDLY[Yph]VDCG-NH2 (thioether N-14; not fully specified (residue 6); reading uncertain; also: homodimer: Lys6 joined to Lys6 of second copy by cPEG17c (Linker Structure No. 4)) [Peptide complex Dimer Structure No. 16] |  |  | ≥ 50 % activity at 100 nM
{CH2CO}-WWVD[Tle]KDDLYFVDCG-NH2 (thioether N-14; not fully specified (residue 6); also: homodimer: Lys6 joined to Lys6 of second copy by cPEG17c (Linker Structure No. 4)) [Peptide complex Dimer Structure No. 15] |  |  | ≥ 50 % activity at 100 nM
{CH2CO}-WW[Tle]DVKDD[Atb]YF[hTyr]DCG-NH2 (thioether N-14; reading uncertain; also: homodimer: Lys6 joined to Lys6 of second copy by OCOPEG17OCO (Linker Structure No. 6)) [Peptide complex Dimer Structure No. 52] | ≥ 50 % activity at 5 nM | ≥ 50 % activity at 5 nM | 
{CH2CO}-WW[Tle]DVKDDNYF[hTyr]DCG-NH2 (thioether N-14; not fully specified (residues 5, 6); also: dimer joined at Lys6 side chains by cPEG17c) [Peptide complex Dimer Structure No. 29] | ≥ 50 % activity at 10 nM | ≥ 50 % activity at 10 nM | 
{CH2CO}-WW[Tle]DVKDD[Atb]YF[hTyr]DCG-NH2 (thioether N-14; reading uncertain; also: homodimer: Lys6 joined to Lys6 of second copy by OCOPEG13OCO (Linker Structure No. 5)) [Peptide complex Dimer Structure No. 49] | ≥ 50 % activity at 5 nM | ≥ 50 % activity at 20 nM | 
{CH2CO}-WW[Tle]DVKDDLY[F4G]VDCG-NH2 (thioether N-14; also: homodimer: Lys6 joined to Lys6 of second copy by OCOPEG17OCO (Linker Structure No. 6)) [Peptide complex Dimer Structure No. 51] | ≥ 50 % activity at 5 nM | ≥ 50 % activity at 5 nM | 
{CH2CO}-[4Py2NH2]W[Tle]DVKDDLYF[hTyr]DCG-NH2 (thioether N-14; not fully specified (residue 6); reading uncertain; also: homodimer: Lys6 joined to Lys6 of second copy by cPEG17c (Linker Structure No. 4)) [Peptide complex Dimer Structure No. 22] |  |  | ≥ 50 % activity at 10 nM
{CH2CO}-[F4aao]W[Tle]DVKDDLYF[hTyr]DCG-NH2 (thioether N-14; not fully specified (residue 6); reading uncertain; also: homodimer: Lys6 joined to Lys6 of second copy by cPEG17c (Linker Structure No. 4)) [Peptide complex Dimer Structure No. 24] |  |  | ≥ 50 % activity at 10 nM
{CH2CO}-WW[Tle]DVKNDLYF[hTyr]DCG-NH2 (thioether N-14; also: homodimer: Lys6 joined to Lys6 of second copy by cPEG17c (Linker Structure No. 4)) [Peptide complex Dimer Structure No. 47] | ≥ 50 % activity at 1.25 nM | ≥ 50 % activity at 20 nM | 
{CH2CO}-[3Py6NH2]W[Tle]DVKDDLYF[hTyr]DCG-NH2 (thioether N-14; not fully specified (residue 6); reading uncertain; also: homodimer: Lys6 joined to Lys6 of second copy by cPEG17c (Linker Structure No. 4)) [Peptide complex Dimer Structure No. 23] |  |  | ≥ 50 % activity at 10 nM
